± gives the standard deviation of the averaged measurements.
System: ATP
Experiment: switch fluorescence ratio, 500 uM ATP over buffer (Cy3 cluster intensity, sum of 5 cycles each) (fold (ratio)); higher = stronger signal-on switching upon ATP binding; sequences stand for … in TCGTCGGCAGCGTCAGATGTGTATAAGAGACAGTTTTTTTTTTTTTTTTTTTTTTTTT…TC
Conditions: aptamer strand: ATP DNA aptamer (quencher-CACCTGGGGGAGTATTGCGGAGGAAGG + anchor), 100 nM annealed; ATP concentration: 500 uM
In short: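 After annealing to 100 nM quencher-labelled ATP aptamer, Cy3-labelled switching-strand clusters on a modified Illumina MiSeq flow-cell were imaged in selection buffer. A second image followed after 15 min with 500 uM ATP at 22 °C, and five such buffer/ATP cycles were done, each separated by NaOH stripping and re-annealing. The fluorescence ratio, averaged per switch-domain sequence, is summed target-cycle over summed buffer-cycle Cy3 intensity per cluster, with clusters outside 100-1000 RFU excluded.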
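Further: ATP exposure 15 min at 22 °C before imaging.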

CCGGTTCATT
switch fluorescence ratio: 1.0368 ± 0.00072

CTGAGCAAG
switch fluorescence ratio: 2.34 ± 0.28

CAATACTACT
switch fluorescence ratio: 1.361 ± 0.01

CAAATGATTT
switch fluorescence ratio: 0.985 ± 0.021

TAATGTGTCG
switch fluorescence ratio: 1.021 ± 0.0042

AATTGGTGCG
switch fluorescence ratio: 0.985 ± 0.035

GTTGTATTTT
switch fluorescence ratio: 0.989 ± 0.022

CATTACGCCG
switch fluorescence ratio: 1.11 ± 0.042

TTTACAGGTT
switch fluorescence ratio: 1.11 ± 0.1

GGATGTATAG
switch fluorescence ratio: 0.997 ± 0.052

AAAATACCTA
switch fluorescence ratio: 1.15 ± 0.14

GCCTGTTTGG
switch fluorescence ratio: 1.014 ± 0.01

CGGTGGGGCG
switch fluorescence ratio: 1 ± 0.034

TTATTAAATG
switch fluorescence ratio: 0.998 ± 0.013

CAAACTGGCA
switch fluorescence ratio: 1.05 ± 0.045

AATATAAAGG
switch fluorescence ratio: 1 ± 0.031

AGGATAGCAA
switch fluorescence ratio: 1.3 ± 0.023

CTTCCGCTTG
switch fluorescence ratio: 1.58 ± 0.021

TTCAGTGGAG
switch fluorescence ratio: 1.009 ± 0.0087

TTATCTCGTA
switch fluorescence ratio: 0.99 ± 0.013

TTTCGGCACT
switch fluorescence ratio: 1.01 ± 0.05

GTTGGTGCAC
switch fluorescence ratio: 0.98 ± 0.04

CGGGGGTCCT
switch fluorescence ratio: 0.986 ± 0.015

GGGGGTCCAG
switch fluorescence ratio: 0.997 ± 0.022

AAGGGCGCCC
switch fluorescence ratio: 1.14 ± 0.18

TGTGTCTACA
switch fluorescence ratio: 1 ± 0.024

TAGGCAGATG
switch fluorescence ratio: 1.01 ± 0.02

TGGAGCGCCG
switch fluorescence ratio: 1.01 ± 0.028

GAGGGGGGGT
switch fluorescence ratio: 1.08 ± 0.34

GGAGTTAATT
switch fluorescence ratio: 1.02 ± 0.013

TAGGGTTTTG
switch fluorescence ratio: 1.01 ± 0.042

CTATATACCA
switch fluorescence ratio: 1.06 ± 0.043

CGTAACTGTG
switch fluorescence ratio: 1.07 ± 0.043

AGCAGAGGGT
switch fluorescence ratio: 0.994 ± 0.04

AGGTAGTGTG
switch fluorescence ratio: 0.989 ± 0.014

GAGGTGCGGG
switch fluorescence ratio: 0.99 ± 0.023

TGGTCTTTGT
switch fluorescence ratio: 1 ± 0.015

ATTGGGATCC
switch fluorescence ratio: 1.02 ± 0.029

CTAATGTGCC
switch fluorescence ratio: 0.993 ± 0.052

ACATATGGGC
switch fluorescence ratio: 0.974 ± 0.037

TAAAAGGGAT
switch fluorescence ratio: 1.01 ± 0.023

GAAGAAGGCT
switch fluorescence ratio: 0.89 ± 0.078

CGGGCGAATA
switch fluorescence ratio: 1 ± 0.017

TCGGGATTTA
switch fluorescence ratio: 1.02 ± 0.033

GGGGGGCTTA
switch fluorescence ratio: 0.999 ± 0.018

AGATATTTCG
switch fluorescence ratio: 1.02 ± 0.028

TACTGGTTGG
switch fluorescence ratio: 1 ± 0.021

TGTGAGGG
switch fluorescence ratio: 1.03 ± 0.036

ATGAGATCAG
switch fluorescence ratio: 1.003 ± 0.005

GACTTAGTGG
switch fluorescence ratio: 1.03 ± 0.077

CTTCTTGTTT
switch fluorescence ratio: 1.008 ± 0.0037

GGACAGAGTT
switch fluorescence ratio: 0.9801 ± 0.0013

CGCCGGGTGC
switch fluorescence ratio: 2.75 ± 0.43

TAGTGAAAGA
switch fluorescence ratio: 0.9855 ± 0.0031

TATCGAAAAA
switch fluorescence ratio: 0.967 ± 0.054

CGCTCCGGGC
switch fluorescence ratio: 1.23 ± 0.058

TGAGTGGACC
switch fluorescence ratio: 0.992 ± 0.047

GCCGGGATAG
switch fluorescence ratio: 1.23 ± 0.35

GGGTGCCCTA
switch fluorescence ratio: 0.986 ± 0.051

ACACGTTGGC
switch fluorescence ratio: 1.05 ± 0.06

TTTTAGGCAT
switch fluorescence ratio: 1.01 ± 0.031

CATGTGTTTG
switch fluorescence ratio: 0.993 ± 0.014

TTTGCTTA
switch fluorescence ratio: 0.995 ± 0.012

TATATCTTTT
switch fluorescence ratio: 1.04 ± 0.026

TGGGGAATCT
switch fluorescence ratio: 1.02 ± 0.016

GGTAGTGTGG
switch fluorescence ratio: 0.992 ± 0.023

TCCATTCCGA
switch fluorescence ratio: 1.17 ± 0.13

TTTACCGGCG
switch fluorescence ratio: 1.02 ± 0.051

GCGTTTTCGG
switch fluorescence ratio: 1.02 ± 0.039

ATCATAGGAT
switch fluorescence ratio: 1.0329 ± 0.00082

AGGGGTTTGC
switch fluorescence ratio: 0.957 ± 0.021

CAGAGATTCT
switch fluorescence ratio: 0.992 ± 0.0077

TATAATCCTG
switch fluorescence ratio: 0.992 ± 0.035

GTGGTCCGCG
switch fluorescence ratio: 1.017 ± 0.0015

AGAGGCTTTT
switch fluorescence ratio: 1.02 ± 0.046

TAAAAGCTTT
switch fluorescence ratio: 1.02 ± 0.029

TTTATACGGC
switch fluorescence ratio: 1.03 ± 0.014

AGGGGTGATA
switch fluorescence ratio: 1.023 ± 0.0047

TTTGTACTTT
switch fluorescence ratio: 1.01 ± 0.041

TGTTGTTGAT
switch fluorescence ratio: 0.985 ± 0.036

CATCGGCTGA
switch fluorescence ratio: 0.992 ± 0.023

AAAAGTGGGG
switch fluorescence ratio: 1.02 ± 0.019

TAATAAGGTG
switch fluorescence ratio: 1.13 ± 0.23

AGGTTGGCAA
switch fluorescence ratio: 1.07 ± 0.14

TAGGTTAGTG
switch fluorescence ratio: 0.951 ± 0.01

ATCTGTTTTG
switch fluorescence ratio: 1.02 ± 0.049

CGCTATGGGA
switch fluorescence ratio: 1.02 ± 0.026

GGGTAAGCTT
switch fluorescence ratio: 0.996 ± 0.016

AAGAGTGGGA
switch fluorescence ratio: 1.03 ± 0.011

TAGGCAGGGC
switch fluorescence ratio: 1.04 ± 0.11

ATGGATATAT
switch fluorescence ratio: 0.995 ± 0.016

CCCCGGATTT
switch fluorescence ratio: 1.09 ± 0.098

TTACCGTGCC
switch fluorescence ratio: 1.27 ± 0.059

TTTCGGTCAT
switch fluorescence ratio: 1.02 ± 0.029

TGGGAAATCA
switch fluorescence ratio: 0.993 ± 0.048

TTCTTATTTT
switch fluorescence ratio: 0.999 ± 0.014

TTTGTGAATT
switch fluorescence ratio: 0.972 ± 0.012

GGATTTCAGG
switch fluorescence ratio: 0.982 ± 0.017

TGGAATTTTT
switch fluorescence ratio: 0.987 ± 0.03

TTAAGAGATA
switch fluorescence ratio: 0.989 ± 0.018

— the supplement of paper PMC10126150
